How the values were obtained:
APP transgenic mice = assay: Mouse model of AD (APP transgenic mice); assay type: in vivo
Procedure: Experiments were performed to evaluate whether TTP-4000 could affect amyloid formation and cognitive dysfunction in a mouse model of AD. The experiments utilized transgenic mice expressing the human Swedish mutant amyloid precursor protein (APP) under the control of the PDGF-B chain promoter. Over time, these mice generate high levels of the RAGE ligand, amyloid beta (Aβ).
The APP mice (male) used in this experiment were designed by microinjection of the human APP gene (with the Swedish and London mutations) into mouse eggs under the control of the platelet-derived growth factor B (PDGF-B) chain gene promoter. The mice were generated on a C57BL/6 background and were developed by Molecular Therapeutics Inc. Animals were fed ad libituin and maintained by brother sister mating. The mice generated from this construct develop amyloid deposits starting at 6 months of age. Animals were aged for 6 months and then maintained for 90 days and sacrificed for amyloid quantification.
APP transgenic mice were administered vehicle or TTP4000 every other day [qod (i.p.)] for 90 days starting at 6 months of age. At the end of the experiment, animals were sacrificed and examined for AP plaque burden in the brain (i.e., plaque number). A 6-month control APP group was used to determine the baseline of amyloid deposits. In addition, at the end of the study, the animals were subjected to behavioral (Morris water maze) analysis. The investigators were blinded to the study compounds. Samples were given to the mice at 0.25 ml/mouse/every other day.
For histological examination, the animals were anesthetized with an intraperitoneal injection (IP) of sodium pentobarbital (50 mg/kg). The animals were transcardially perfused with 4° C., phosphate-buffered saline (PBS) followed by 4% paraformaldehyde. The brains were removed and placed in 4% paraformaldehyde over night. The brains were processed to paraffin and embedded. Ten serial 30-μm thick sections through the brain were obtained. Sections were subjected to primary antibody overnight at 4° C. (Aβ peptide antibody) in order to detect the amyloid deposits in the brain of the transgenic animals (Guo et al., J. Neurosci., 22:5900-5909 (2002)). Sections were washed in Tris-buffered saline (TBS) and secondary antibody was added and incubated for 1 hour at room temperature. After washing, the sections were incubated as instructed in the Vector ABC Elite kit (Vector Laboratories) and stained with […] (DAB). The reactions were stopped in water and cover-slipped after treatment with xylene. The amyloid area in each section was determined with a computer-assisted image analysis system, consisting of a Power Macintosh computer equipped with a Quick Capture frame grabber card, Hitachi CCD camera mounted on an Olympus microscope and camera stand. NIH Image Analysis Software, v. 1.55 was used. The images were captured and the total area of amyloid was determined over the ten sections. A single operator blinded to treatment status performed all measurements. Summing the amyloid volumes of the sections and dividing by the total number of sections was done to calculate the amyloid volume.
For quantitative analysis, an enzyme-linked immunosorbent assay (ELISA) was used to measure the levels of human total Aβ, Aβtotal and Aβ1-42 in the brains of APP transgenic mice (Biosource International., Camarillo, Calif.). Aβtotal and Aβ1-42 were extracted from mouse brains by guanidine hydrochloride and quantified as described by the manufacturer. […]

[1] = target: immobilized known RAGE ligands (HMG1B, CML, A beta); assay: Saturation binding of TTP-4000 to immobilized known RAGE ligands; conditions: fusion protein 0 to 360 nM; Graphpad Prizm; FIG. 15; figures not given
Procedure: The ligands are immobilized on a microtiter plate and incubated in the presence of increasing concentrations of fusion protein from 0 to 360 nM. The fusion protein-ligand interaction is detected using a polyclonal antibody conjugated with alkaline phosphatase that is specific for the IgG portion of the fusion chimera. […] HMG1B=Ampoterin, CML=Carboxymethyl Lysine, A beta=Amyloid beta 1-40.

B1: TTP-4000: four domain RAGE fusion protein (SEQ ID NO: 32): human RAGE amino acids 1-251 linked to CH2 and CH3 domains of human IgG (protein)
chain: MAAGTAVGAWALVLSLWGAVVGAQNITARIGEPLVLKCKGAPKKPPQRLEWKLNTGRTEAWKVLSPQGGGPWDSVARVLPNGSLFLPAVGIQDEGIFRCQAMNRNGKETKSNYRVRVYQIPGKPEIVDSASELTAGVPNKVGTCVSEGSYPAGTLSWHLDGKPLVPNEKGVSVKEQTRRHPETGLFTLQSELMVTPARGGDPRPTFSCSFSPGLPRHRALRTAPIQPRVWEPVPLEEVQLVVEPEGGAVAPPSVFLFPPKPKDTLMISRTPEVTCVVVDVSHEDPEVKFNWYVDGVEVHNAKTKPREEQYNSTYRVVSVLTVLHQDWLNGKEYKCKVSNKALPAPIEKTISKAKGQPREPQVYTLPPSRDELTKNQVSLTCLVKGFYPSDIAVEWESNGQPENNYKTTPPVLDSDGSFFLYSKLTVDKSRWQQGNVFSCSVMHEALHNHYTQKSLSLSPGK
inflammatory cytokines IL-1 and TNF-α (APP transgenic mice; data not shown): can reduce
Aβ plaques in the brain (APP transgenic mice; treated for 3 months, versus vehicle and human IgG1, FIG. 14A): fewer Aβ plaques
cognitive dysfunction (Morris water maze) (APP transgenic mice; treated for 3 months, versus vehicle and human IgG1, FIG. 14B): less cognitive dysfunction
Relative Kds [1]: match with established literature values
